Source: patent US20250186594A1 (BRIGHT PEAK THERAPEUTICS, published 2025)
Where a chain is given by its changes, count along the chain named. Names and notes keep the numbering of the source.

T1: IL-18 receptor (IL-18R) on HEK-Blue IL18R reporter cells (UniProt Q13478 19-541; O95256 20-599, limits assumed)
T1 sequence (looked up) 1: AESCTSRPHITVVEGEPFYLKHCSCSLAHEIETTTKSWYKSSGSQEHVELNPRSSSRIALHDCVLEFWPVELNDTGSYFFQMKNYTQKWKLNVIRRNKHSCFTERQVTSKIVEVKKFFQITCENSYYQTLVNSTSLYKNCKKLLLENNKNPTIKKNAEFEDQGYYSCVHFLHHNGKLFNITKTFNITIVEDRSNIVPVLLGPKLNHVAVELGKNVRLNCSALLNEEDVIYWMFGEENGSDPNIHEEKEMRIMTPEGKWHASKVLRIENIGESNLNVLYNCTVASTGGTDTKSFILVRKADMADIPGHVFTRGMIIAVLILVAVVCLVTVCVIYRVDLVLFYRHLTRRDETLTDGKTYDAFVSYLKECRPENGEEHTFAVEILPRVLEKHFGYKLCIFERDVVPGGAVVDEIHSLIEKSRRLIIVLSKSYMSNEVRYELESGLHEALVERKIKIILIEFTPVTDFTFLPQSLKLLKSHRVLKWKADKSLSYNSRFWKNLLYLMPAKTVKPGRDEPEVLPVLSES
T1 sequence (looked up) 2: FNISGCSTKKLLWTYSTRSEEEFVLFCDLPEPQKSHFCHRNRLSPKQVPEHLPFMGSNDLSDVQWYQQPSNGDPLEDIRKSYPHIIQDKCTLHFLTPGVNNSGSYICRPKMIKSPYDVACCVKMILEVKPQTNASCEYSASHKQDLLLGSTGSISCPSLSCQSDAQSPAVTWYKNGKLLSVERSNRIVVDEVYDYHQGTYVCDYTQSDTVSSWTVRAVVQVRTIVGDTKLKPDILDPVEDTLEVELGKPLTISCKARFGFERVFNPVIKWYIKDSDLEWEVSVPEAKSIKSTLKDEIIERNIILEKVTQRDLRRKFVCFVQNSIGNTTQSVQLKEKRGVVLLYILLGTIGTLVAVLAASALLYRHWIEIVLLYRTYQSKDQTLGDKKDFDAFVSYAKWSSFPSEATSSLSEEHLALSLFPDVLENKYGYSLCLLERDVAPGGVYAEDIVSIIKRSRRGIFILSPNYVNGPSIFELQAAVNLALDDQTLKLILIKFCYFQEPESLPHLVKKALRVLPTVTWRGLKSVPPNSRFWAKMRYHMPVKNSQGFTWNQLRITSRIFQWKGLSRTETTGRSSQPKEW

T2: Fc fused human IL-18Rα (human, UniProt Q13478 19-329, limits assumed)
T2 construct: also called IL-18Rα monomer; human IL-18 receptor alpha (CD218a); not shown: Fc
T2 sequence (looked up): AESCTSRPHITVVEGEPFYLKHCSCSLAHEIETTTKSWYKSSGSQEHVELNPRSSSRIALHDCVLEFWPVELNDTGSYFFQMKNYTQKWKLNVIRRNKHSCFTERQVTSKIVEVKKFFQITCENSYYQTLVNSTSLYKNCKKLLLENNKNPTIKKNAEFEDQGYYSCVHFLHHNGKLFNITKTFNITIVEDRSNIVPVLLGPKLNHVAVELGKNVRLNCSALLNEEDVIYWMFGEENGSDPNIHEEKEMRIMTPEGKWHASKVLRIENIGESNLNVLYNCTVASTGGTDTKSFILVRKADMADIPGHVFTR

T3: IL-18Rα/β heterodimer (Fc fused human IL-18Rα mixed with Fc fused human IL-18Rβ) (human, UniProt Q13478 19-329; O95256 20-356, limits assumed)
T3 construct: Alpha and beta Fc fusions were mixed and pre-incubated for 30 min before capture on anti-human IgG; also called alpha/beta heterodimer IL-18 receptor; heterodimeric human IL-18 receptor alpha (CD218a) and IL-18R accessory protein (IL-18RAP/CDw218b); not shown: Fc
T3 sequence (looked up) 1: T2 sequence (looked up)
T3 sequence (looked up) 2: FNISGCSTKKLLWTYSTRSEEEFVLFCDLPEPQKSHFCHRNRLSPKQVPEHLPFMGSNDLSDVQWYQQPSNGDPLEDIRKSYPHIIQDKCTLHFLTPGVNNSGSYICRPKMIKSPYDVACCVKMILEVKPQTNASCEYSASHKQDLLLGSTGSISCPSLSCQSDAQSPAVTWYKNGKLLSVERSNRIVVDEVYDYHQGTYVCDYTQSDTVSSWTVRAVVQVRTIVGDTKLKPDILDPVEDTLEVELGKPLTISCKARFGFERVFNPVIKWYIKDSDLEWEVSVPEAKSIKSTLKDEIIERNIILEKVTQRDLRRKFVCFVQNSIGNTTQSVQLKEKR

B1: IL-18 variant SEQ ID NO: 242 (N-terminal G, E6K, V11I, C38A, K53A, T63A, C76A, C127A) (ligand)
chain: GYFGKLKSKLSIIRNLNDQVLFIDQGNRPLFEDMTDSDARDNAPRTIFIISMYADSQPRGMAVAISVKCEKISTLSAENKIISFKEMNPPDNIKDTKSDIIFFQRSVPGHDNKMQFESSSYEGYFLAAEKERDLFKLILKKEDELGDRSIMFTVQNED
B2: IL-18 variant SEQ ID NO: 244 (N-terminal G, E6K, V11I, C38A, M51G, K53A, T63A, C76A, C127A) (ligand)
chain: B1 chain with M52G
B3: IL-18 variant SEQ ID NO: 241 (N-terminal 4xG, E6K, V11I, C38A, K53A, T63A, C76A, C127A) (ligand)
chain: GGGGYFGKLKSKLSIIRNLNDQVLFIDQGNRPLFEDMTDSDARDNAPRTIFIISMYADSQPRGMAVAISVKCEKISTLSAENKIISFKEMNPPDNIKDTKSDIIFFQRSVPGHDNKMQFESSSYEGYFLAAEKERDLFKLILKKEDELGDRSIMFTVQNED
B4: IL-18 variant SEQ ID NO: 207 (V11I, C38A, M51G, K53A, C76A, C127A) (ligand)
chain: YFGKLESKLSIIRNLNDQVLFIDQGNRPLFEDMTDSDARDNAPRTIFIISGYADSQPRGMAVTISVKCEKISTLSAENKIISFKEMNPPDNIKDTKSDIIFFQRSVPGHDNKMQFESSSYEGYFLAAEKERDLFKLILKKEDELGDRSIMFTVQNED
B5: IL-18 variant SEQ ID NO: 239 (E6K, V11I, C38A, M51G, K53A, T63A, C76A, C127A) (ligand)
chain: B4 chain with E6K, T63A
B6: IL-18 variant SEQ ID NO: 60 (E6K, C38Q, K53A) (ligand)
chain: B4 chain with E6K, I11V, A38Q, G51M, A76C, A127C
B7: IL-18 variant SEQ ID NO: 61 (E6K, C38A, K53A, C76A) (ligand)
chain: B4 chain with E6K, I11V, G51M, A127C
B8: IL-18 variant SEQ ID NO: 57 (E6K, C38S, K53A) (ligand)
chain: B4 chain with E6K, I11V, A38S, G51M, A76C, A127C
B9: IL-18 variant SEQ ID NO: 62 (E6K, C38A, K53A, C127A) (ligand)
chain: B4 chain with E6K, I11V, G51M, A76C
B10: IL-18 variant SEQ ID NO: 63 (E6K, C38A, K53A, C76A, C127A) (ligand)
chain: B4 chain with E6K, I11V, G51M
B11: IL-18 variant SEQ ID NO: 30 with 30 kDa PEG (E6K, V11I, C38A, K53A, T63A, C76A, C127A, C68-30kPEG) (ligand)
chain: B4 chain with E6K, G51M, T63A
modifications: 30 kDa PEG on Cys 68 (C68-30kPEG)
notes: also called 30 + PEG30; 30 + PEG
B12: IL-18 variant SEQ ID NO: 30 with 5 kDa PEG (E6K, V11I, C38A, K53A, T63A, C76A, C127A, C68-5kPEG) (ligand)
chain: B4 chain with E6K, G51M, T63A
modifications: 5 kDa PEG on Cys 68 (C68-5kPEG)
notes: also called 30 + PEG5
B13: IL-18 variant SEQ ID NO: 30 with 20 kDa PEG (E6K, V11I, C38A, K53A, T63A, C76A, C127A, C68-20kPEG) (ligand)
chain: B4 chain with E6K, G51M, T63A
modifications: 20 kDa PEG on Cys 68 (C68-20kPEG)
notes: also called 30 + PEG20
B14: IL-18 variant SEQ ID NO: 59 with 30 kDa PEG (E6K, C38A, K53A, C68-30kDPEG) (ligand)
chain: B4 chain with E6K, I11V, G51M, A76C, A127C
modifications: 30 kDa PEG on Cys 68 (C68-30kDPEG)
notes: also called 59 + PEG30; 59 + PEG
B15: IL-18 variant SEQ ID NO: 30 with 10 kDa PEG (E6K, V11I, C38A, K53A, T63A, C76A, C127A, C68-10kPEG) (ligand)
chain: B4 chain with E6K, G51M, T63A
modifications: 10 kDa PEG on Cys 68 (C68-10kPEG)
notes: also called 30 + PEG10
B16: IL-18 variant SEQ ID NO: 57 with 30 kDa PEG (E6K, C38S, K53A, C68-30kDPEG) (ligand)
chain: B4 chain with E6K, I11V, A38S, G51M, A76C, A127C
modifications: 30 kDa PEG on Cys 68 (C68-30kDPEG)
notes: also called 57 + PEG30; 57 + PEG
B17: IL-18 variant SEQ ID NO: 60 with 30 kDa PEG (E6K, C38Q, K53A, C68-30kPEG) (ligand)
chain: B4 chain with E6K, I11V, A38Q, G51M, A76C, A127C
modifications: 30 kDa PEG on Cys 68 (C68-30kPEG)
notes: also called 60 + PEG
B18: IL-18 variant SEQ ID NO: 61 with 30 kDa PEG (E6K, C38A, K53A, C76A, C68-30kPEG) (ligand)
chain: B4 chain with E6K, I11V, G51M, A127C
modifications: 30 kDa PEG on Cys 68 (C68-30kPEG)
notes: also called 61 + PEG

The binders below were run against T1, IL-18 receptor (IL-18R) on HEK-Blue … (assay: cell-based or functional assay).

EC50, HEK-Blue IL18R reporter [nM] | Binder
1.68 | B1
14 | B2
2.5 | B3
0.8 | B4
0.1 | B5
0.203 | B6
0.084 | B7
0.53 | B8
0.17 | B9
0.0139 | B10
0.23 | B11

Molecular target: T1, IL-18 receptor (IL-18R) on HEK-Blue …
Experiment: cell-based or functional assay
Remark: another data set of the same source

EC50 (read off the curve); SEAP reporter in HEK-Blue IL18R cells (OD 620 nM) [pM] | Binder
~2 | B1
~10 | B2
~3 | B3
~4 | B4
~0.1 | B5

What follows are binders tested against T2, Fc fused human IL-18Rα (assay: SPR, Fc-IL-18Rα captured, 1:1 fit).
Procedure: (§1) The interaction of the wild type and of modified IL-18 polypeptides with human IL-18 receptor subunits are measured with Surface Plasmon Resonance (SPR) technology. Anti-human IgG antibodies are bound by amine coupling onto a CM5 chip to capture 6 µg/mL of Fc fused human IL-18Rα, […] of Fc fused human IL-18Rβ, or […] of Fc fused human IL-18BP isoform a (IL-18BPa) for 30 min before capture. In other settings, […] of alpha and beta IL-18 receptors are mixed and pre-incubated for 30 min before capture of the alpha/beta heterodimer IL-18 receptor.
(§2) The kinetic binding of the IL-18 analytes are measured with a Biacore 8K instrument in two fold serial dilutions starting at […] down to 0.98 nM. Regeneration of the surface back to amine coupled anti IgG antibody is done after every concentration of analyte. To measure the protein association to the receptors, the samples are injected with a flow rate of […] for 60 s, followed by 300 s buffer only to detect the dissociation. The used running buffer is 1×PBS with 0.05% Tween20. The relative response units (RU, Y-axis) are plotted against time (s, X-axis) and analyzed in a kinetic 1:1 binding model for the monomer receptor binding and for the binding to the IL-18BP. A kinetic heterogenous ligand fit model is applied for the alpha/beta heterodimer binding.

Kd [nM] | koff [s⁻¹] | kon [M⁻¹ s⁻¹] | Binder
158 | 0.0748 | 475000 | B12
9.85 | 0.0102 | 1.03e+06 | B6
30.4 | 0.0674 | 2.22e+06 | B7
75 | 0.0133 | 95200 | B8
379 | 0.0805 | 213000 | B13
352 | 0.0264 | 74600 | B14
239 | 0.0779 | 326000 | B15
63.9 | 0.0424 | 664000 | B9
42.2 | 0.976 | 2.31e+07 | B10
770 | 0.0842 | 125000 | B11
701 | 0.0267 | 37900 | B16
345 | 0.0195 | 66300 | B17
~1000 | 0.0288 | 28700 | B18

What follows are binders tested against T3, IL-18Rα/β heterodimer (Fc fused human …) (assay: SPR, Fc-IL-18Rα/β captured, heterogeneous ligand fit).
Procedure: as §1, §2

Kd [nM] | koff [s⁻¹] | kon [M⁻¹ s⁻¹] | Binder
2.2 | 0.000594 | 269000 | B12
0.49 | 0.000589 | 1.21e+06 | B6
1.01 | 0.0011 | 1.09e+06 | B7
2.3 | 0.000816 | 535000 | B8
5.49 | 0.000637 | 116000 | B13
8.02 | 0.00058 | 84500 | B14
8.7 | 0.00105 | 120000 | B15
1.24 | 0.00149 | 1.21e+06 | B9
0.41 | 0.000467 | 1.15e+06 | B10
15.7 | 0.000618 | 39400 | B11
23 | 0.000787 | 33800 | B16
13.3 | 0.000789 | 68300 | B17
15.5 | 0.000589 | 38100 | B18
